Assay results from patent US10500249B2, “Compositions and methods for preventing or treating diseases, conditions, or processes characterized by aberrant fibroblast proliferation and extracellular matrix deposition” (MOERAE MATRIX, INC., priority 2014, dated 2019).

What was measured:
Experiment in all cases: Kinase Profiling Assay
Assay type in all cases: biochemical
Details in all cases: 100 μM
MKK7β (h) = biological target: T1, MKK7β (h) (Homo sapiens, UniProt O14733)
T1 construct: purchased Millipore
T1 sequence (O14733 1-419): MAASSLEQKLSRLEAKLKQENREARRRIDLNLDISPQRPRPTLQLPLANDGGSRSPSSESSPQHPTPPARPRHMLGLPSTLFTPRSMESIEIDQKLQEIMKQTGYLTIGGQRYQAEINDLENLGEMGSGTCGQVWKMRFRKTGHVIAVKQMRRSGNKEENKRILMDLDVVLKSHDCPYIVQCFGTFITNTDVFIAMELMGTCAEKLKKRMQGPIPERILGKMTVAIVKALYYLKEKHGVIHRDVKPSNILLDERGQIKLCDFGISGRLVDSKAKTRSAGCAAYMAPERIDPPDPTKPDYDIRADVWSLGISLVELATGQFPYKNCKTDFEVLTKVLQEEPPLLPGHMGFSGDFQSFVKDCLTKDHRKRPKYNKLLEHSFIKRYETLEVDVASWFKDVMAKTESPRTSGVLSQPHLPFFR
Method in brief: (§1)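 In this 266-kinase specificity panel, every measurement was duplicated. Transfer of labeled phosphate from ATP to a cationic substrate was quantified after the substrate adhered to an anionic filter membrane and was scintillation-counted, then related to a full-activity control.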

HIPK3 (h) = biological target: T2, HIPK3 (h) (Homo sapiens, UniProt Q9H422)
T2 construct: purchased Millipore
Method in brief: as §1

Abl (M351T) (h) = Abl (M351T) (h) (Homo sapiens, UniProt P00519, M351T)
Method in brief: as §1

JNK1α1 (h) = JNK1α1 (h) (Homo sapiens, UniProt P45983)
Method in brief: as §1

EGFR(T790M) (h) = biological target: T3, EGFR(T790M) (h) (Homo sapiens, UniProt P00533, T790M)
T3 construct: purchased Millipore
Method in brief: as §1

PAK3 (h) = biological target: T4, PAK3 (h) (Homo sapiens, UniProt O75914)
T4 construct: purchased Millipore
Method in brief: as §1

Snk (h) = Snk (h) (Homo sapiens, UniProt Q9NYY3)
Method in brief: as §1

MRCKα (h) = biological target: T5, MRCKα (h) (Homo sapiens, UniProt Q5VT25)
T5 construct: purchased Millipore
Method in brief: as §1

PAR-1Bα (h) = biological target: T6, PAR-1Bα (h) (Homo sapiens, UniProt Q7KZI7)
T6 construct: purchased Millipore
Method in brief: as §1

cKit(V560G) (h) = biological target: T7, cKit(V560G) (h) (Homo sapiens, UniProt P10721, V560G)
T7 construct: purchased Millipore
Method in brief: as §1

JAK3 (h) = biological target: T8, JAK3 (h) (Homo sapiens, UniProt P52333)
T8 construct: purchased Millipore
T8 sequence (P52333 1-1124): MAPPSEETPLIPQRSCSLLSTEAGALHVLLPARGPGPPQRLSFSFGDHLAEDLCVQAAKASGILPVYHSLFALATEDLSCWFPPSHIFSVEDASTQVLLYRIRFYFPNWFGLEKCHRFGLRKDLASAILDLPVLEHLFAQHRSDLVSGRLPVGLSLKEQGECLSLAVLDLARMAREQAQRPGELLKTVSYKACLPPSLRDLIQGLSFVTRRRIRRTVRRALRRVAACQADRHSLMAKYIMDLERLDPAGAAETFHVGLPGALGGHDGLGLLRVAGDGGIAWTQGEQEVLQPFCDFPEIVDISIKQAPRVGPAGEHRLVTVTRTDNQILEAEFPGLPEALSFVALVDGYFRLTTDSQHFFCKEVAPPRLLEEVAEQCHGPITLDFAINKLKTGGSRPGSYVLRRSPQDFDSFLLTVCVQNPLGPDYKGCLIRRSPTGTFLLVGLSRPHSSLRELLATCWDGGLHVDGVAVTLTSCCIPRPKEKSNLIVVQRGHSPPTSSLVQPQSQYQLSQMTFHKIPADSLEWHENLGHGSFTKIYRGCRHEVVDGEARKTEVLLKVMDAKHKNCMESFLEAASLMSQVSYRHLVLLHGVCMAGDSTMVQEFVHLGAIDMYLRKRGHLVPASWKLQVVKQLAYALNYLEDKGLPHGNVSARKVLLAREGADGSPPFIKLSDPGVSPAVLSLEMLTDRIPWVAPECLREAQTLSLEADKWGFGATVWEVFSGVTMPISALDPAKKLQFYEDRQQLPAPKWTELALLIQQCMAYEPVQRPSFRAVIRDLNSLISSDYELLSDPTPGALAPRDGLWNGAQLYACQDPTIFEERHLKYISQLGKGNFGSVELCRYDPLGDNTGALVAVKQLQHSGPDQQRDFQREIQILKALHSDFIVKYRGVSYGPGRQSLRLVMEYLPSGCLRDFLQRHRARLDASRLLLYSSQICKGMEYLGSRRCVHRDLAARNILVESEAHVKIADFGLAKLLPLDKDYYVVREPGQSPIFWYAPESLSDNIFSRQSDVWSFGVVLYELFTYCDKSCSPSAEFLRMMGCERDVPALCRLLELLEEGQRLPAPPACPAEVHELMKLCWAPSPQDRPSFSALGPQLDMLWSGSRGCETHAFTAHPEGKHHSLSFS
Method in brief: as §1

PKA (h) = biological target: T9, PKA (h) (Homo sapiens, UniProt P17612)
T9 construct: purchased Millipore
Method in brief: as §1

PDGFRα (D842V) (h) = biological target: T10, PDGFRα (D842V) (h) (Homo sapiens, UniProt P16234, D842V)
T10 construct: purchased Millipore
Method in brief: as §1

GRK5 (h) = biological target: T11, GRK5 (h) (Homo sapiens, UniProt P34947)
T11 construct: purchased Millipore
Method in brief: as §1

MAPK1 (h) = MAPK1 (h) (Homo sapiens, UniProt P27361)
Method in brief: as §1

Tie2(R849W) (h) = Tie2(R849W) (h) (Homo sapiens, UniProt Q02763, R849W)
Method in brief: as §1

CK2α2 (h) = biological target: T12, CK2α2 (h) (Homo sapiens, UniProt P19784)
T12 construct: purchased Millipore
Method in brief: as §1

IGF-1R (h) = biological target: T13, IGF-1R (h) (Homo sapiens, UniProt P08069)
T13 construct: purchased Millipore
Method in brief: as §1

T2 sequence (Q9H422 whole entry): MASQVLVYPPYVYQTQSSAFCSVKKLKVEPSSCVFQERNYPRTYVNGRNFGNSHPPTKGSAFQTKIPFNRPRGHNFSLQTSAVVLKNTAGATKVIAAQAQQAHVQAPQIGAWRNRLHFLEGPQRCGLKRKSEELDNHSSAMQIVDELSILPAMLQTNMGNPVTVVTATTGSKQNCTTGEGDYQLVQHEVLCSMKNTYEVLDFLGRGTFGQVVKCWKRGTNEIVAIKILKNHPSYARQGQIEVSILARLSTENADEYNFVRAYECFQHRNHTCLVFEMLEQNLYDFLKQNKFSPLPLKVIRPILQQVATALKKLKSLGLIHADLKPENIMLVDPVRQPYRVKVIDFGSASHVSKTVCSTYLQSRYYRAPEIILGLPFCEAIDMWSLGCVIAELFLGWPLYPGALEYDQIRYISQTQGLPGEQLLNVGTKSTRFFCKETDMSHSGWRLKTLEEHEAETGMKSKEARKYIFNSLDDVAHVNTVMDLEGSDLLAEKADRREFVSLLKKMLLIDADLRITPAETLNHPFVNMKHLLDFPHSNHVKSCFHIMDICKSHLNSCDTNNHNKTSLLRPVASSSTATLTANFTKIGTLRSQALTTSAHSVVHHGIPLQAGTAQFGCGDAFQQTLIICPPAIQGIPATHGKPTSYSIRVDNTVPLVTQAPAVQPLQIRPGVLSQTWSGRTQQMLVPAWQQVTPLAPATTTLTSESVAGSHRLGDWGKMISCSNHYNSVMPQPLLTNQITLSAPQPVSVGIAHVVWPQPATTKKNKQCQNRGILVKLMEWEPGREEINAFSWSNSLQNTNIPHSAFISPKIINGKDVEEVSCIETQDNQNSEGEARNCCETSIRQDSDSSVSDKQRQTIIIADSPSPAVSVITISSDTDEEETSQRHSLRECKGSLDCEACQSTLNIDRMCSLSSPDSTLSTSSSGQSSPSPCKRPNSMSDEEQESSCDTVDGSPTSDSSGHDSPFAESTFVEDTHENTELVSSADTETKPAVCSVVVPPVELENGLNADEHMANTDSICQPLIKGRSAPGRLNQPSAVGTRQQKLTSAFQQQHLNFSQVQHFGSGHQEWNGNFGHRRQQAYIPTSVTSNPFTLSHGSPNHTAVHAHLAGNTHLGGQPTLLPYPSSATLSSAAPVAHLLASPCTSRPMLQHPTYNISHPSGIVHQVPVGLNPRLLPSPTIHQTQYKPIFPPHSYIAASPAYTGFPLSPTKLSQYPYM
Chain of MAPK1 (h) (P27361 whole entry): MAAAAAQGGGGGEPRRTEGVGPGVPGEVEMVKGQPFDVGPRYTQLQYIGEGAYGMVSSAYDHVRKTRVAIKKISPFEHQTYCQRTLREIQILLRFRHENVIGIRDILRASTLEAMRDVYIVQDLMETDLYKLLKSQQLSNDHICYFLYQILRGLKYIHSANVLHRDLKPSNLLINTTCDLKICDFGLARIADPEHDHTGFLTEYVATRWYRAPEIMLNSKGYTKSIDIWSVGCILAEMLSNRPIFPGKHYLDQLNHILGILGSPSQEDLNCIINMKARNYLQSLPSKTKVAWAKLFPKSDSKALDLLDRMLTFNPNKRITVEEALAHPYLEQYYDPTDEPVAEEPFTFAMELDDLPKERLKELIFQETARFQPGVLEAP
T11 sequence (P34947 whole entry): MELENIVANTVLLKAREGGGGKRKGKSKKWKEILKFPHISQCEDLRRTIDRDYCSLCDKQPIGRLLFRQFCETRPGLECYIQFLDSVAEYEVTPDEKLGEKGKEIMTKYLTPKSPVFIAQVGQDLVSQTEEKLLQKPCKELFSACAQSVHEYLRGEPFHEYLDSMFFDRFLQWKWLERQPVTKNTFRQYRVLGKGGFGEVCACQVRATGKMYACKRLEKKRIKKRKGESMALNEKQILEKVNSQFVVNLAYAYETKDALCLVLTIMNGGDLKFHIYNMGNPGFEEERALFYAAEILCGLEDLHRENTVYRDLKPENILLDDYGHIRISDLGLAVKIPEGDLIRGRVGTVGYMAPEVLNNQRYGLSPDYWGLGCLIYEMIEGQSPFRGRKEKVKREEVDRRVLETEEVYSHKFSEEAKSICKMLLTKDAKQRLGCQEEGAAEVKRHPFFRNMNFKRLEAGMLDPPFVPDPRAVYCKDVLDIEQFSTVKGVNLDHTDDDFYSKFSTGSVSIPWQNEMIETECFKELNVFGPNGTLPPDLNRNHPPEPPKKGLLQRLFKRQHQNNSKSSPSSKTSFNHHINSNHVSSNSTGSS
T4 sequence (O75914 whole entry): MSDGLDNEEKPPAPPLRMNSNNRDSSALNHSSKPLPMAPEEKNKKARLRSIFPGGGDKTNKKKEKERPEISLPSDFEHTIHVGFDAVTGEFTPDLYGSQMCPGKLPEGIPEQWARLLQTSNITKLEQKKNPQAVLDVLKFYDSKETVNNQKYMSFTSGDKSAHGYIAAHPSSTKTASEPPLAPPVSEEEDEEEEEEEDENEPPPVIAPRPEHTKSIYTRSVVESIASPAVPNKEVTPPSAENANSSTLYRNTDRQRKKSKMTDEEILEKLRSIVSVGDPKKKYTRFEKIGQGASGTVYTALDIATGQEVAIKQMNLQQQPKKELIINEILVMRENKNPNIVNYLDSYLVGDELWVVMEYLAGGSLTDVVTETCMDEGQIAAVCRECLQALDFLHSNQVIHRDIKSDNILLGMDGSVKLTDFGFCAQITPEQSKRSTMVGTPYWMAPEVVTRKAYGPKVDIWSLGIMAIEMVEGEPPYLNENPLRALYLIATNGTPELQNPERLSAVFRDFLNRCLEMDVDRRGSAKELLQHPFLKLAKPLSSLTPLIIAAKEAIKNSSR
T5 sequence (Q5VT25 whole entry): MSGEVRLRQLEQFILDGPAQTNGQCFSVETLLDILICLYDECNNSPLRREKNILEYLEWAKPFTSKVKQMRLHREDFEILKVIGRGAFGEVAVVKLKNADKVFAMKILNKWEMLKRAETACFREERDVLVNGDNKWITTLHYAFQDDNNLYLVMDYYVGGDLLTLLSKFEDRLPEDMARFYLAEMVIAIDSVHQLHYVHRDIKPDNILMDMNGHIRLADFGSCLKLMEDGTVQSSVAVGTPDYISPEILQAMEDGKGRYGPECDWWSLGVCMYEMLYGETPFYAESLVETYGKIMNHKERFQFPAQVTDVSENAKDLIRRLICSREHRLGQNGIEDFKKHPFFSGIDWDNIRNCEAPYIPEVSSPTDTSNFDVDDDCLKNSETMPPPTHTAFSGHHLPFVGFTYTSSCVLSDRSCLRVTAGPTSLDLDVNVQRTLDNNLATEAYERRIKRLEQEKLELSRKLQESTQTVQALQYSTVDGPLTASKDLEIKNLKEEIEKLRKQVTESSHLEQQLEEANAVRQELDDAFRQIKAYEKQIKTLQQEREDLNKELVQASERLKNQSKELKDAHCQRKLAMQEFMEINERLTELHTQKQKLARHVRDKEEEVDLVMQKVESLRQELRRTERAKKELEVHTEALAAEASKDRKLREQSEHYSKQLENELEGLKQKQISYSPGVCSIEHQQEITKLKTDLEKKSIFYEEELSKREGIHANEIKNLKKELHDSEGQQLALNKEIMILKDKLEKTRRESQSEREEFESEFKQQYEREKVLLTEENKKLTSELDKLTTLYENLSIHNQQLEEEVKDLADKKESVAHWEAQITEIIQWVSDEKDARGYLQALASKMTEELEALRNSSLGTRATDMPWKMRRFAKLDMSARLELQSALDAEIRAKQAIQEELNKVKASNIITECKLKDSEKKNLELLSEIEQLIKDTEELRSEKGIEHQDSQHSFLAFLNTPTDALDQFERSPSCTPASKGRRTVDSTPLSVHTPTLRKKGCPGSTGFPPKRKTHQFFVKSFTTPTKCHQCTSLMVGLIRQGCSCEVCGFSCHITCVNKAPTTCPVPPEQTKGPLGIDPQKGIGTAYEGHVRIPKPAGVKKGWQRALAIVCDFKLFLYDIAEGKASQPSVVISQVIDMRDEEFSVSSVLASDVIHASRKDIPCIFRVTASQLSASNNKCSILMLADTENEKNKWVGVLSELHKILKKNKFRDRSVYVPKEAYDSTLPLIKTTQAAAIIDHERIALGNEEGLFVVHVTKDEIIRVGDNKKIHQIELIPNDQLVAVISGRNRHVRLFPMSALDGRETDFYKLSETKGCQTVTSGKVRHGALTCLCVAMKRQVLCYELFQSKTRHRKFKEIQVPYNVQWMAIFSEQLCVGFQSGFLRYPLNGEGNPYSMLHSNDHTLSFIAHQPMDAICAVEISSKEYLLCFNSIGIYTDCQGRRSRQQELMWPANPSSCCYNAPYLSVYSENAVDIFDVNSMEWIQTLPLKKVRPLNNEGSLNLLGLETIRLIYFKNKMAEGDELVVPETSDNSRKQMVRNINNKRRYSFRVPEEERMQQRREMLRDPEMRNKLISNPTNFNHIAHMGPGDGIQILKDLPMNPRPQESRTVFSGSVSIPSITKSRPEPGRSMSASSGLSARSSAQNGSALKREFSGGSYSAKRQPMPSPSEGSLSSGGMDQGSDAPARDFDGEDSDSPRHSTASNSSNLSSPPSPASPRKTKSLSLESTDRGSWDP
Chain of JNK1α1 (h) (P45983 1-384 isoform P45983-2): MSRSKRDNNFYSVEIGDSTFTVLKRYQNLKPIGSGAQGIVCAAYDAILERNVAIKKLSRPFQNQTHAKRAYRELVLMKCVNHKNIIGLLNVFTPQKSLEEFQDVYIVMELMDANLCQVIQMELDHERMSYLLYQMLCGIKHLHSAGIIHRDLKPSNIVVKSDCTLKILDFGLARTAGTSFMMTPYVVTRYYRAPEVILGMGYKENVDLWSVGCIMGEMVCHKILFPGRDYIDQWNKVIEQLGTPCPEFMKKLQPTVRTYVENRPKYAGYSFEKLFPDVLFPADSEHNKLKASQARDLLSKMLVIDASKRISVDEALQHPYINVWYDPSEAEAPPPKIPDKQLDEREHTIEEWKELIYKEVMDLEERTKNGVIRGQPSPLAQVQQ

Sequence	% activity (MKK7β (h))	% activity (HIPK3 (h))	% activity (Abl (M351T) (h))	% activity (JNK1α1 (h))	% activity (EGFR(T790M) (h))	% activity (PAK3 (h))	% activity (Snk (h))	% activity (MRCKα (h))	% activity (PAR-1Bα (h))	% activity (cKit(V560G) (h))	% activity (JAK3 (h))	% activity (PKA (h))	% activity (PDGFRα (D842V) (h))	% activity (GRK5 (h))	% activity (MAPK1 (h))	% activity (Tie2(R849W) (h))	% activity (CK2α2 (h))	% activity (IGF-1R (h))
FAKLAARLYRKALARQLGVAA [MMI-0300]	100%	93%	90%	97%	100%	140%												
HRRIKAWLKKIKALARQLGVAA (Mammalian) [MMI-0500]		85%	61%		70%		122%	5%	97%	198%	95%	118%	170%					
KAFAKLAARLYRKALARQLGVAA [MMI-0400]	94%			98%			131%	97%		124%	122%		118%	131%	100%	108%	96%	90%
YARAAARQARAKALNRQLGVA (Mammalian) [MMI-0200]						50%			110%			110%		135%	97%	89%	88%	49%
